*1 amine or outer side, *2 acyl side, *3 side chain or, on linkers, in order; H or OH if unused. Bridges are numbered along the chain shown (N, C = ends). Primed or numbered codes have the meaning given here. Where no end group is shown, it is not given here. Side-chain parts run from the residue outwards. [ ]: non-standard residue; d: D form. The star is where a group is joined. Ttds = 1,13-diamino-4,7,10-trioxatridecan-succinamic acid, NCCCOCCOCCOCCCNC(=O)CCC(=O)*; DOTA(In) = O=C1CN2CCN3CCN(CC(=O)*)CCN(CC2)CC(=O)[O][In]([O]1)[O]C(=O)C3; NH(1-deoxy-D-glucityl) = OC[C@@H](O)[C@@H](O)[C@H](O)[C@@H](O)CN*; (dE)(AGLU) = D-glutamic acid bearing 1-amino-1-deoxy-D-glucitol; dE(AGLU) = D-glutamic acid bearing 1-amino-1-deoxy-D-glucitol; Pro(trans-4-NH2) = O=C([C@@H]1C[C@@H](N[*:3])CN1[*:1])[*:2]; DOTA = O=C(O)CN1CCN(CC(=O)O)CCN(CC(=O)*)CCN(CC(=O)O)CC1; Trp(5-Cl) = N[C@@H](Cc1c[nH]c2ccc(Cl)cc12)C(=O)O; Pyridine(2,6-diCH2) = c1cc(C[*:1])nc(C[*:2])c1; APAc = 4-amino-1-carboxymethylpiperidine; mXylylene = c1cc(C[*:1])cc(C[*:2])c1; LuDOTA = DOTA Lutetium(III) complex; Glutaryl = O=C(CCCC(=O)[*:2])[*:1]; AGLU = 1-amino-1-deoxy-D-glucitol; Hyp = O=C(O)[C@@H]1C[C@@H](O)CN1; Cysteamide = C(CS[*:3])N[*:1]; 2Lut(3) = 2,6-lutidylidene; Api = NC1(C(=O)O)CCNCC1; Thp = NC1(C(=O)O)CCOCC1
B1: DOTA-PEG6-glu(AGLU)-Asp-Trp-5Clw-Tap-Glu-leu-[Cys(2Lut)-Thp-Leu-Ile-Cys]-APAc-glu(AGLU)-NH2 (peptide)
peptide: DW[Trp(5-Cl)][Pro(trans-4-NH2)]E[dL]C[Thp]LIC-{APAc-(dE)(AGLU)-NH2}
modifications: linker 7-11 via Pyridine(2,6-diCH2); not fully specified (N-terminus); printed as DOTA-PEG6-glu(AGLU)-Asp-Trp-5Clw-Tap-Glu-leu-[Cys(2Lut)-Thp-Leu-Ile-Cys]-APAc-glu(AGLU)-NH2
B2: DOTA-O2Oc-glu(AGLU)-Asp-Trp-5Clw-Tap-Glu-leu-[Cys(2Lut)-Apc(AGLU-Glutar)-Leu-Ile-Cys]-APAc-glu(AGLU)-NH2 (peptide)
peptide: DW[Trp(5-Cl)][Pro(trans-4-NH2)]E[dL]C[Api]([Glutaryl-NH(1-deoxy-D-glucityl)])LIC-{APAc-(dE)(AGLU)-NH2}
modifications: linker 7-11 via Pyridine(2,6-diCH2); not fully specified (N-terminus); printed as DOTA-O2Oc-glu(AGLU)-Asp-Trp-5Clw-Tap-Glu-leu-[Cys(2Lut)-Apc(AGLU-Glutar)-Leu-Ile-Cys]-APAc-glu(AGLU)-NH2
B3: DOTA-Ttds-Asp-Trp-5Clw-Pro-Glu-leu-[Cys(3MeBn)-Apc(DOTA)-Leu-Ile-AET] (peptide)
peptide: {DOTA-Ttds}-DW[Trp(5-Cl)]PE[dL]C[Api](DOTA)LI[Cysteamide]
modifications: linker (positions not given here) via mXylylene; not fully specified (bridges); printed as DOTA-Ttds-Asp-Trp-5Clw-Pro-Glu-leu-[Cys(3MeBn)-Apc(DOTA)-Leu-Ile-AET]
B4: AGLU-Glutar-APAc-Asp-Trp-5Clw-Tap-Glu-leu-[Cys(2Lut)-Apc(GaDOTA-glu(AGLU))-Leu-Ile-Cys]-APAc-glu(AGLU)-NH2 (peptide)
peptide: {AGLU-Glutaryl-APAc}-DW[Trp(5-Cl)][Pro(trans-4-NH2)]E[dL]C[Api]LIC-{APAc-dE(AGLU)-NH2}
modifications: linker 7-11 via Pyridine(2,6-diCH2); not fully specified (residue 8); also: DOTA complexed with Ga (GaDOTA)
B5: AGLU-Glutar-APAc-Asp-Trp-5Clw-Tap-Glu-leu-[Cys(2Lut)-Apc(InDOTA-glu(AGLU))-Leu-Ile-Cys]-APAc-glu(AGLU)-NH2 (peptide)
peptide: {AGLU-Glutaryl-APAc}-DW[Trp(5-Cl)][Pro(trans-4-NH2)]E[dL]C[Api]LIC-{APAc-dE(AGLU)-NH2}
modifications: linker 7-11 via Pyridine(2,6-diCH2); not fully specified (residue 8); also: DOTA complexed with In (InDOTA)
B6: AGLU-Glutar-APAc-Asp-Trp-5Clw-Tap-Glu-leu-[Cys(2Lut)-Apc(LuDOTA-glu(AGLU))-Leu-Ile-Cys]-APAc-glu(AGLU)-NH2 (peptide)
peptide: {AGLU-Glutaryl-APAc}-DW[Trp(5-Cl)][Pro(trans-4-NH2)]E[dL]C[Api]LIC-{APAc-dE(AGLU)-NH2}
modifications: linker 7-11 via Pyridine(2,6-diCH2); not fully specified (residue 8); also: DOTA complexed with Lu (LuDOTA)

Each binder was assayed against human Gastric Inhibitory Peptide Receptor (human) (UniProt P48546) (assay: FACS competition with GIP-057 on CHO-K1-hGIPR cells; pIC50 category A: >8.0).
Chain of human Gastric Inhibitory Peptide Receptor (human) (P48546 22-466 limits assumed): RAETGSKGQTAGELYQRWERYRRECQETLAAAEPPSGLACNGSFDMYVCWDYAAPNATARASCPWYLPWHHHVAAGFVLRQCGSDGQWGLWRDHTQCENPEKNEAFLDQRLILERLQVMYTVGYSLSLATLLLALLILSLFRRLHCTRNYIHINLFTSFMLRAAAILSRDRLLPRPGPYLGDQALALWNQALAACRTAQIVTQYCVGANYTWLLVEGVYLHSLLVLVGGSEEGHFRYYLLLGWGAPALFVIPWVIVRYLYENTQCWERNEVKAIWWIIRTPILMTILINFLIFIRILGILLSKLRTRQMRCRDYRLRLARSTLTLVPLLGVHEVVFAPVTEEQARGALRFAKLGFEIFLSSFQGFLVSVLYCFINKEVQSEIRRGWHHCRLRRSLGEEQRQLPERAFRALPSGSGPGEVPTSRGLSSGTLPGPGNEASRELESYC

pIC50, > 8 pic50:
B1, {AGLU-Glutaryl}-DW[Trp(5-Cl)][Pro(trans-4-NH2)]E[dL]C[Api](DOTA)LI[dC]-{APAc-dE(AGLU)-NH2} (linker 7-11 via Pyridine(2,6-diCH2)) [AGLU-Glutar-Asp-Trp-5Clw-Tap-Glu-leu-[Cys(2Lut)-Apc(DOTA)-Leu-Ile-cys]-APAc-glu(AGLU)-NH2], {AGLU-Glutaryl-APAc}-DW[Trp(5-Cl)][Hyp]E[dL]C[Api]LIC-{APAc-dE(AGLU)-NH2} (linker 7-11 via Pyridine(2,6-diCH2); not fully specified (residue 8)), B2, {DOTA-dE(AGLU)}-DW[Trp(5-Cl)][Pro(trans-4-NH2)]E[dL]C[Api]([Glutaryl-NH(1-deoxy-D-glucityl)])LIC-{APAc-dE(AGLU)-NH2} (linker 7-11 via Pyridine(2,6-diCH2)) [DOTA-glu(AGLU)-Asp-Trp-5Clw-Tap-Glu-leu-[Cys(2Lut)-Apc(AGLU-Glutar)-Leu-Ile-Cys]-APAc-glu(AGLU)-NH2], B3, {DOTA-Ttds}-DW[Trp(5-Cl)][Hyp]E[dL]C[Thp]LICK(DOTA)-NH2 (linker 7-11 via 2Lut(3)) [DOTA-Ttds-Asp-Trp-5Clw-Hyp-Glu-leu-[Cys(2Lut)-Thp-Leu-Ile-Cys]-Lys(DOTA)-NH2], {DOTA-Ttds}-DW[Trp(5-Cl)][Hyp]E[dL]C[Api](DOTA)LICK(DOTA)-NH2 (linker 7-11 via 2Lut(3)) [DOTA-Ttds-Asp-Trp-5Clw-Hyp-Glu-leu-[Cys(2Lut)-Apc(DOTA)-Leu-Ile-Cys]-Lys(DOTA)-NH2], {DOTA-Ttds}-DW[Trp(5-Cl)][Pro(trans-4-NH2)](DOTA)E[dL]C[Api](DOTA)LICK(DOTA)-NH2 (linker 7-11 via Pyridine(2,6-diCH2)) [DOTA-Ttds-Asp-Trp-5Clw-Tap(DOTA)-Glu-leu-[Cys(2Lut)-Apc(DOTA)-Leu-Ile-Cys]-Lys(DOTA)-NH2], B4, {DOTA-dE(AGLU)-APAc}-DW[Trp(5-Cl)][Hyp]E[dL]C[Api]([Glutaryl-NH(1-deoxy-D-glucityl)])LIC-{APAc-dE(AGLU)-NH2} (linker 7-11 via Pyridine(2,6-diCH2)), B5, B6, {LuDOTA-dE(AGLU)-APAc}-DW[Trp(5-Cl)][Hyp]E[dL]C[Thp]LIC-{APAc-dE(AGLU)-NH2} (linker 7-11 via Pyridine(2,6-diCH2)) [LuDOTA-glu(AGLU)-APAc-Asp-Trp-5Clw-Hyp-Glu-leu-[Cys(2Lut)-Thp-Leu-Ile-Cys]-APAc-glu(AGLU)-NH2], {DOTA(In)-dE(AGLU)-APAc}-DW[Trp(5-Cl)][Hyp]E[dL]C[Thp]LIC-{APAc-dE(AGLU)-NH2} (linker 7-11 via Pyridine(2,6-diCH2)) [InDOTA-glu(AGLU)-APAc-Asp-Trp-5Clw-Hyp-Glu-leu-[Cys(2Lut)-Thp-Leu-Ile-Cys]-APAc-glu(AGLU)-NH2]

Reference: patent US20250296971A1, “GASTRIC INHIBITORY PEPTIDE RECEPTOR LIGANDS” (priority 2021, published 2025)
